Patent publication US20180009892A1 (EUREKA THERAPEUTICS, published 2018)
Changes are numbered by the printed parent chain.

B1: P601-50 (scFv, V domains shown)
VH: QVQLQQSGAEVKKPGASVKVSCKASGYTFSRYYIHWVRRAPGQGLEWMGLINPGGGSTNYAQKFQGRVTMTRDTSTNTVYLELSSLRSDDTAVYYCARDYGTIDARRFDFWGQGTLVTVSS
VL: QSALTQPPSASGTPGQRVTISCPGSSSNIGSNYVYWYQQLPGTAPKLLIYRNNQRPSGVPDRFSGSKSGTSATLGITGLQTGDEADYYCGTWDSSLSAYVFGTGTKVTVL
B2: P601-102 (scFv, V domains shown)
VH: QMQLVQSGGDLVQPGGSLRLSCAASGFTFSSYSMNWVRQAPGKGLEWVSSISSSSSYIYYADSVKGRFTISRDNAKNSLYLQMNSLRAEDTAVYYCARGLGGWTHDAFDIWGQGTTVTVSS
VL: QSALTQPASVSGSPGQSITISCTGTSSDVGGYNYVSWYQQHPGKAPKLMIYDVSKRPSGVSNRFSGSKSGNTASLTISGLQAEDEADYYCSSYTSSSTSVVFGGGTKLTVL
B3: P601-119 (scFv, V domains shown)
VH: B2 VH with M2V, D10G, Q13K, S30G, S31T
VL: QSALTQPASVSASPGQSITISCTGTSSDVGGYNYVTWYQQHPGKAPKLMIYDVSKRPSGVLDRFSGSKSGNTASLTISGLQAEDEADYFCSSYTSSSTLVFGGGTKLTVLG
B4: P601-70 (scFv, V domains shown)
VH: EVQLVQSGAELKKPGSSVRVSCKTSGGSFKTHGISWVRQAPGQGLEWMGWINPNSGGALYVDNFQGRATMTRDTSINTAYMELRSLSSDDTAVYYCARGMADLIDVFDIWGQGTMVTVSS
VL: TQPALTQPASVSGSPGQSITISCTGTSSDFGDYDYVSWYQQHPGKAPKLMIYDVSDRPSGVSNRFSGSKSGNTASLTISGLQAEDEADYFCSSFTTSSTLVFGGGTKLTVL
B5: P601-128 (scFv, V domains shown)
VH: EVQLVQSGAEVKKPGESLKISCKGSGYSFSRYWIGWVRQMPGKGLEWMGIIYPRDSDTRYSPSFQGQVTISADKSISTAYLQWSSLKASDTAMYYCATPVVTAGAFDIWGQGTMVTVSS
VL: DIQMTQSPSSVSASVGDRVTITCRASQGISSWLAWYQQKPGKAPKLLIYAASSLQSGVPSRFSGSGSGTDFTLTISSLQPEDFATYYCQQANSFPLTFGGGTKVEIK
B6: P601-108 (scFv, V domains shown)
VH: QLQLQESGPGLVKPSETLSLTCTVSGGSISSNSYYWGWIRQPPGKGLEWIGSIYYSGSTYYNPSLKSRVTISVDTSKNQFSLKLGSVTAADTAVYYCARHDGTDAFDIWGQGTTVTVSS
VL: QSVVTQPPSVSAAPGQKVTISCSGSSSNIGKNYVSWYQQFPGTAPKLLIYDNNERPSGIPARFSGSKSGTSATLGITGLQTGDEADYYCATFDTSLWAAVFGGGTKLTVL
B7: P601-69 (scFv, V domains shown)
VH: QVQLVQSGAEVKKPGESLKISCKGSGYSFTSYWIGWVRQMPGKGLEWMGIIYPGDSDTRYSPSFQGQVTISADKSISTAYLQWSSLKASDTAMYYCARLSSSSYDAFDIWGQGTMVTVSS
VL: B2 VL with K55N, T98I, S99P, V100W
B8: P601-4 (scFv, V domains shown)
VH: EVQLVQSGPGLVKPSGTLSLTCAVSGGSISSSNWWSWVRQPPGKGLEWIGEIYHSGSTNYNPSLKSRVTISVDKSKNQFSLKLGSVTAADTATYYCARDLWLGEWDLWGQGTLVTVSS
VL: QSVLTQPPSASGAPGQRVTISCSGGISNVGTNGVNWYQHLPGTAPKLLVDAMNQRPSGVPDRFSGSRSGTSGSLAITGLRSEDEADYYCATWDDSLSGVLFGGGTKLTVLG
B9: P601-9 (scFv, V domains shown)
VH: QLQLQESGPGVVKPSGTLSLTCTVSGGSISRSDGYWGWVRQPPGKGLEWIGSIYDTGTTYYSPSLKSRLIISVDTSKNQFSLTLNSVTAADTAVYYCASMGGLRSSSSDAFHTWGPGTMVTVSS
VL: QSVLTQPPSVSVAPGETARITCGGTNIGSESVHWYQQRPGQAPVLVVYDDTDRPSGIPERFSGSNSGNTATLTISRVEAGDGADYYCQVWDSVSDRYVFGTGTKVTVL
B10: Antibody 601-130 (antibody, V domains shown)
VH: EVQLVETGGGLVKPGGSLRLSCEASGFSLSSYSMNWVRQAPGKGLEWVSSISSSSTHIYYADSLKGRFTISRDNAKNSLFLQMDNLRAEDTAVYYCARATIGFDYWGQGTLVTVSS
VL: QSVLTQPPSVSGAPGQRVTISCTGSSSNIGAGYDVHWYQQLPGTAPKLLIYGNSNRPSGVPDRFSGSKSGTSASLAITGLQAEDEADYYCQSYDSSLSGYVFGTGTKLTVL
B11: Antibody 601-13 (antibody, V domains shown)
VH: EVQLVQSGAEVKKPGSSVKVSCKASGGTFSTFAINWVRQAPGQGLEWMGGVIPVSGTEDYSQKFQGRLSLTADESTGTAYMELSSLRSDDTAVYYCARDRSGRDWDYFDYWGQGTLVTVSS
VL: DIVMTQSPSSLSASVGDRVTITCQASQDISNYLNWYQQKPGKAPKLLIYDASNLETGVPSRFSGSGSGTDFIFTISSLQPEDIATYYCQQFDNLPYTFGQGTKVEIKR
B12: Antibody 601-100 (antibody, V domains shown)
VH: B2 VH with Q1E, M2V, D10G, L11V, S17P, T116M
VL: QSALTQPASVSGSPGQSITISCTGTSRDVGGYDYVSWYQQYPGNAPKLMIYDVSRRPSGVSHRFSASKSGNTASLTISGLQTEDEADYYCSSYTSSSTRVFGGGTKVTVL
B13: Antibody 601-103 (antibody, V domains shown)
VH: B2 VH with Q1E, M2V
VL: QSVLTQPASVSGSPGQSITISCTGTTSDVGGYNYVSWYQQHPGKAPKLMIYDVSKRPSGVSNRFSGSKSGNTASLTISGLQAEDEADYYCSSYTSSSTDVFGTGTKLTVL
B14: Antibody 601-119 (antibody, V domains shown)
VH: B2 VH with M2V, D10G, Q13K, S30G, S31T
VL: B3 VL
B15: Antibody 601-28 (antibody, V domains shown)
VH: B2 VH with Q1E, M2V
VL: QSALTQPASVSGSPGQSITISCTGTSSDVGGYNYVSWYQQHPGKAPKLMIFDVSNRPSGVSNRFSGSKSGNTASLTISGLQAEDEADYYCSSYTSSSTLFGGGTKLTVL
B16: Antibody 601-112 (antibody, V domains shown)
VH: B2 VH with Q1E, M2V
VL: B15 VL with F51Y, N55K, S95G, S96R, L99V
B17: Antibody 601-37 (antibody, V domains shown)
VH: EVQLVQSGAEVKKPGASVKVSCKASGYTFNNYGFSWVRQAPGQGLEWMGWISVYNGNTNYAQKLQGRVTMTTDTSTSTAYMELRSLRSDDTAVYYCARDYYSDSSGYWDDAFDIWGQGTMVTVSS
VL: AIRMTQSPSSLSASVGDRVTITCQASQDISNYLNWYQQKPGKAPKLLIYAASSLQSGVPSRFSGSGSGTDFTLTISSLQPEDFATYYCQQSYSTPFTFGPGTKVDIK
B18: Antibody 601-141 (antibody, V domains shown)
VH: B17 VH with E1Q, V5Q, Y27H, N30S, F34I, V53T, M120T
VL: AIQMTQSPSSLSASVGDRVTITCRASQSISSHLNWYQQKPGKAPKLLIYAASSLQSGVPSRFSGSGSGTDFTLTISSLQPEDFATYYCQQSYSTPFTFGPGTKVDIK

target: T1, human ROR1 extracellular domain (ECD) protein (human, UniProt Q01973 30-406); test: competitive phage ELISA: soluble ROR1 against ROR1-coated plate
T1 construct: also called hROR1-ECD; human ROR1-ECD
Experimental: Purified phage antibodies were first diluted serially in PBST buffer, and tested for binding to a ROR1-coated plate. The dilution that gave 50-80% saturating signal was used in the solution binding assay in which phage were first incubated with increasing concentration of ROR1 for one to two hours, and then transferred to a ROR1-coated plate for 10-15 minutes to capture the unbound phage.

T1 sequence (Q01973 30-406 limits assumed): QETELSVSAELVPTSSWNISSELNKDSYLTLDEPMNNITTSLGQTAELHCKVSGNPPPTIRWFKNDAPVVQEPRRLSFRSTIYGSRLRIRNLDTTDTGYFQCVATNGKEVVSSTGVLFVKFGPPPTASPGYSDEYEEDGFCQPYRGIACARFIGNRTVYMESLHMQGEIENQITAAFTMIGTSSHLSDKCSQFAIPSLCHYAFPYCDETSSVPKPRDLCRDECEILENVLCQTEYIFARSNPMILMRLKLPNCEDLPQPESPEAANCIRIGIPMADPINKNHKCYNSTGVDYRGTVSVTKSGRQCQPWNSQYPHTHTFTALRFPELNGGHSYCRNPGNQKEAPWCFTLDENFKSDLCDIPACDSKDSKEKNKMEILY

Binder	IC50 [nM]
B1	24.1
B2	10.2
B3	17.7
B4	74
B5	263
B6	0.76
B7	9.81
B8	0.93
B9	14.6

target: T2, ROR1 extracellular domain Fc-fusion, dimer (human, UniProt Q01973 30-406); test: SPR, immobilised ROR1 dimer, antibody injected, 1:1 model
T2 construct: also called ROR1 dimer; hROR1 dimeric ECD-Fc fusion protein; not shown: Fc part
Experimental: (§1) The binding affinities of ROR1 extracellular domain dimer and monomer for anti-ROR1 antibodies were determined by surface plasmon resonance (SPR). ROR1 extracellular domain Fc-fusion, “dimer,” and ROR1 extracellular domain Fc fusion:Fc heterodimer, “monomer,” are the dimer and monomeric forms of ROR1 used for affinity analysis, respectively. Briefly, ROR1 dimer and monomer were directly immobilized to a CM4 chip using an amine coupling kit and 100 mM ethylenediamine in 100 mM Sodium Borate buffer, pH 8.0 as the blocking reagent. Approximately 100-150 RU of ROR1 dimer and monomer were immobilized on separate flow cells and an un-derivatized flow cell was used as a reference control. […] Dissociation was followed for 180 seconds. The association constant, dissociation constant, and affinity of each anti-ROR1 antibody was calculated using the Biacore T200 Evaluation Software 1:1 binding model.
(§2) Sensorgrams were normalized to 100 RU using the “binding stability point” at the end of the association phase but before the dissociation phase.

T2 sequence (Q01973 30-406): as the sequence (Q01973 30-406 limits assumed) above

Binder	koff [s⁻¹]	kon [M⁻¹ s⁻¹]
B10	0.0012	520000
B11	0.00087	1.6e+06
B12	0.0017	440000
B13	0.0035	170000
B14	0.079	440000
B15	0.0097	340000
B16	0.00032	340000
B17	0.0018	1e+06
B18	0.022	1.8e+06

target: T2, ROR1 extracellular domain Fc-fusion, …; test: SPR, immobilised ROR1 dimer, antibody injected, 1:1 model; apparent affinity
Experimental: as §1, §2

Binder	Kd [nM]
B10	2.2
B11	0.5
B12	3.9
B13	20.7
B14	178
B15	28.5
B16	1
B17	1.7
B18	11.9

target: T3, ROR1 extracellular domain Fc fusion:Fc heterodimer, monomer (human); test: SPR, immobilised ROR1 monomer, antibody injected, 1:1 model
T3 construct: Heterodimer of one ROR1 ECD-Fc chain and one Fc chain; also called ROR1 monomer; hROR1 monomeric ECD-Fc fusion protein; not shown: Fc part; Fc alone
Experimental: as §1, §2

T3 sequence (Q01973 30-406, one chain of several): as the sequence (Q01973 30-406 limits assumed) above

Binder	Kd [nM]	koff [s⁻¹]	kon [M⁻¹ s⁻¹]
B10	4.1	0.0018	450000
B11	0.8	0.0014	1.8e+06
B12	8.2	0.0028	350000
B13	40.2	0.005	120000
B14	407	0.095	230000
B15	36.4	0.012	320000
B16	4.6	0.0012	270000
B17	3	0.0027	920000
B18	20.6	0.026	1.2e+06

target: T4, human ROR2-ECD (human, UniProt Q01974 34-403); test: protein ELISA, phage
T4 construct: extracellular domain; also called hROR2
T4 sequence (Q01974 34-403): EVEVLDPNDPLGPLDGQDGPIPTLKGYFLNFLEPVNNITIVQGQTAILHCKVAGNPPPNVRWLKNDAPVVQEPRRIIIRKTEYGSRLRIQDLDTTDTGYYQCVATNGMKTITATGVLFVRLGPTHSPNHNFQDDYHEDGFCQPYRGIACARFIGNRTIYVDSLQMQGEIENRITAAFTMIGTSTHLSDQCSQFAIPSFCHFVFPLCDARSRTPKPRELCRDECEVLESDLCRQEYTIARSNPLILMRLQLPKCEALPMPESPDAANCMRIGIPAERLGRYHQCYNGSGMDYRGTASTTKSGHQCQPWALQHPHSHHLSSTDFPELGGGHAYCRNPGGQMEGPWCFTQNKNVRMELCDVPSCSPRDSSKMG

Binder	binding result
B1	no binding
B2	no binding
B3	no binding
B4	no binding
B5	no binding
B6	no binding
B7	no binding
B8	no binding
B9	no binding
